This note sets out measurements from patent publication US10400249B2, “HPPD variants and methods of use” (priority 2014, dated 2019).

Numbering of substitutions follows the chain as printed. In names and notes the source's numbering stands.

The subject of data set [1] is T0 soybean plants. Kind of data set: greenhouse spray test of T0 soybean plants for tolerance to mesotrione. Format: in vivo. The following applies: mesotrione 3X field rate, 316 grams AI per hectare, seven days after treatment. As to the method: T0 soybean plants expressing an HPPD inhibitor tolerant enzyme of the present invention, along with a gene conferring tolerance to glyphosate and a gene conferring tolerance to glufosinate or having a “plant expression cassette”, which includes only an HPPD inhibitor tolerant enzyme of the present invention, were tested for tolerance to mesotrione. Prior greenhouse trials with the transgenic plants, soy transformants were routinely analyzed for the expression and presence of the transgenes using the ELISA protein detection method (see detailed description under item D and H). Only plants recovering in the selection media and having a detectable HPPD transgene protein expression were used for the herbicide tolerance analysis. A DeVries Tracker Sprayer was calibrated prior to each spraying. The chemical formulation used for mesotrione (MST) testing was Callisto® 4 SC formulation supplemented with ammonium sulfate and methylated rape seed oil (Actirob). Spray tests were conducted using 3× the field rate (equivalent to 9 fluid ounce per acre of the same herbicide formulation that containing 40% the active ingredient (AI), mesotrione), which equals 316 grams AI per hectare. Tolerance was evaluated one week after spraying. […] A tolerance rating of “0” was assigned to plants that their shoot apexes, newly emerged trifoliates and some axillary buds were completely bleached. A rating of “1” was assigned to plants having slight tolerance, i.e., the newest plant shoot tissues had some green leaves and are not bleached completely. A rating of “2” was assigned to plants showing moderate tolerance, i.e., more than 50% of the leaf area of the top three trifoliates showing no chlorosis or bleaching damage. A rating of “3” was assigned to plants showing nearly perfect tolerance, i.e., less than 10% of the leaf area showing chlorosis or very slight bleaching.

Data set [2] relates to Pseudomonas fluorescens HPPD protein. Kind of data set: OD assay: HPPD activity and pI50 from HPP remaining after derivatisation with DNP. Format: biochemical. Conditions: for Activity DeltaE/24 min μg Protein: HPPD enzyme activity of the clone; for tolerance (pI50) Cmpd. 2: inhibitor Cmpd. 2; for tolerance (pI50) DKN: inhibitor diketonitrile (DKN), negative log of molar concentration; for tolerance (pI50) MST: inhibitor mesotrione (MST); for tolerance (pI50) TBT: inhibitor tembotrione (TBT). In outline: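 Purified Pseudomonas fluorescens HPPD, room temperature. OD assay: 50 mM Tris-HCl pH 7.8, 0.5 mM HPP, 10 mM ascorbate, catalase, 24 min, remaining HPP derivatised with DNP, read at 405 nm, inhibitor 5.0×10^−6 to 5.0×10^−4 M. HGD assay: 200 mM Tris-HCl pH 7.6, 600 μM HPP, 20 μM FeSO4, coupled HGA dioxygenase, initial rates at 318 nm, inhibitor ≤100 μM, time-course gives inhibition type; pI50 from 4-parameter fits.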

[3] abbreviates: HT-single plant expression cassette.
Setting [4] is: HT-triple plant expression cassette.

B1: FLP136: PfHPPD variant P215L, E335P, G336F (protein)
chain: MADLYENPMGLMGFEFIEFASPTPGTLEPIFEIMGFTKVATHRSKNVHLYRQGEINLILNNEPNSIASYFAAEHGPSVCGMAFRVKDSQKAYNRALELGAQPIHIDTGPMELNLPAIKGIGGAPLYLIDRFGEGSSIYDIDFVYLEGVERNPVGAGLKVIDHLTHNVYRGRMVYWANFYEKLFNFREARYFDIKGEYTGLTSKAMSAPDGMIRILLNEESSKGAGQIEEFLMQFNGEGIQHVAFLTDDLVKTWDALKKIGMRFMTAPPDTYYEMLEGRLPDHGEPVDQLQARGILLDGSSVEGDKRLLLQIFSETLMGPVFFEFIQRKGDDGFGPFNFKALFESIERDQVRRGVLTAD
modifications: HPPD variant - FLP136
notes: PfHPPD variant P215L, E335P, G336F
As to B1, in data set [1] (setting [3]), the “Number of T0 soybean plants with herbicide tolerance rating 0 (completely bleached)” value (“Number … (completely bleached)” below) worked out at 4, the “Number of T0 soybean plants with herbicide tolerance rating 1 (slight tolerance)” value (from here on “Number of T0 soybean plants … (slight tolerance)”) came to 10, the “Number of T0 soybean plants with herbicide tolerance rating 2 (moderate tolerance)” value (“Number … (moderate tolerance)” below) worked out at 41 and the “Number of T0 soybean plants with herbicide tolerance rating 3 (nearly perfect tolerance)” value (“Number … (nearly perfect tolerance)” for short) was 20. In data set [1] (setting [4]), the “Number … (completely bleached)” value stood at 4, the “Number of T0 soybean plants … (slight tolerance)” value came out at 17, the “Number … (moderate tolerance)” value was found to be 33 and the “Number … (nearly perfect tolerance)” value was 19. In data set [2], the “Activity DeltaE/24 min μg Protein” value is listed as 0.09 DeltaE/24 min μg Protein, the “tolerance (pI50) Cmpd. 2” value is reported as 4.8, the “tolerance (pI50) DKN” value amounted to 2.6 and the “tolerance (pI50) MST” value is given as 3.3. Besides, the “tolerance (pI50) TBT” value in data set [2] was 4.7.

B2: FLP202: PfHPPD variant P215L, E335P, G336F, A340E (protein)
chain: B1 chain with A340E
modifications: HPPD variant - FLP202
notes: PfHPPD variant P215L, E335P, G336F, A340E
On to B2, for which, in data set [1] (setting [3]), the “Number … (completely bleached)” value turned out to be 2, the “Number of T0 soybean plants … (slight tolerance)” value is given as 21, the “Number … (moderate tolerance)” value is recorded as 37 and the “Number … (nearly perfect tolerance)” value is recorded as 18. In addition, in data set [1] (setting [4]), the “Number … (completely bleached)” value is 7, the “Number of T0 soybean plants … (slight tolerance)” value stood at 8, the “Number … (moderate tolerance)” value was found to be 10 and the “Number … (nearly perfect tolerance)” value amounted to 14. In addition, in data set [2], the “Activity DeltaE/24 min μg Protein” value was 0.09 DeltaE/24 min μg Protein, the “tolerance (pI50) Cmpd. 2” value is given as 4.5, the “tolerance (pI50) DKN” value is on record as less than 2.5 and the “tolerance (pI50) MST” value is less than 2.5. Further, the “tolerance (pI50) TBT” value in data set [2] is on record as 3.6.
